# Reference: the nanobody polyreactivity screen of Harvey et al. (2022)
# Assay: yeast display, Sf9 membrane polyspecificity reagent, FACS + sequencing; frameworks hold sequencing errors
# How it was run: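 Galactose-induced (36–48 hours) yeast carrying a synthetic nanobody display library were exposed to 10% biotinylated, detergent-solubilized Sf9 membrane reagent at 4 °C for 1 hour. FACS followed streptavidin microbead enrichment, using low and high (top ~1%) gates for expression (anti-HA) and reagent binding (streptavidin). Colony PCR, MiSeq 2 × 250 sequencing and CDR-length filtering followed. Labels for polyreactivity reflect the gate of origin.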
row,Sequence,polyreactivity (PSR sort gate)
1,QVQLVESGGGLLQAGGSLRLSCAASGSTFYKYAMGWYRHAPRKERELVASISRSGRSTYYADSVKGRFTISRDNAKNTVYLQMNSLKPEDTAVYYCAATWRQHPGSMGYWGQGTQVTVSS,high polyreactivity
2,QVQLVESGGGLLQAGGSLRLSCAASGSTYIGNAMGWYRQAPGKERELVAAITSGGSTNYADSVKGRFTISRDNAKNTVYLQKNSLKPEDTAVYYCAKPSRWGWTGFYAYDYWGQGTQVTVSS,low polyreactivity
3,QVQLVESGGGLLQAGGSLRLSCASSGRTFARYVMGWYRQAPGKERELVAAITRSGGSTYYADSVKGRFTISRDNAKNTVYLQMNSMKPEDTAVYYCAATLRWGLYNTFYSTFNVSYYYWGQGTQVTVSS,high polyreactivity
4,QVQLVESGGGLLQAGGSLRLSFAASGFTFGRYAMGWYRQAPGKERELVAAISTSGGRTYYADSVKGRFTISRDNAKNTVYLQMNSLKPEDTAVYYCAAEQRRFTGYDYWGQGTQVTVSS,high polyreactivity
5,QVQLVESGGGLLQAGGSLRVSCAASGSIIFFYAMGWYRQAPGKERELVAAISKSPSSTYYADSVKGRFTISRDNAKNTVYLQMNSLKPEDTAVYYCNTGYSGIQYYYWGQGTQVTVSS,low polyreactivity
6,QVQLVESGGGLLQAGGSLSLSCAASGFTFIGYAMGWYRQATGKEREFVAAISWSGGRTYYADSVKGRFTISRDNAKNTVYLQMNSLKPEDTAVYYCAARGSRKPDWGLGYWGQGTQVTVSS,high polyreactivity
7,QVQLVESGGGLLQAGGSLSLSCAASGFTFNRNAMGWYRQAPGKERELVAAISWSGGSTYYADSVKGRFTISRDNAKNTVYLQMNSLKPEDTAVYYCAKGYRRVYSMDWGQGTQVTVSS,low polyreactivity
8,QVQLVESGGGLLQAGGSQSLSCAASGIISFSNTMGWYIQAPGKERELVAAIDSGGDDTYYADSVKGRFTISRDNAKNSVYLQMNCLKAEDSAVDYCAKDAFFTEIAIRDQIISHHYYWGHGTQVTVSS,low polyreactivity
9,QVQLVESGGGLLQAGVTLRLSCAPSGFTQDSYSMGWYRQAPGKERELVARIRWSGGSTYYADSVKGRFTISRDNAKNTVYLQMNSLKPEDKAVYYCAADRPYYFLPYSTYTNYDSWGQGTQVTVSS,low polyreactivity
10,QVQLVESGGGLVEAGGSHRLTCAASGSTFGWYPIGWYRQAPGTERELVAGINSRGGSTYYADSVKGRFTISRDNAQNTVYLQMNSLKPEDTAVYYCNTVWASRRAHDYWGQGTQVTVSS,high polyreactivity
11,QVQLVESGGGLVEAGGSLRLRCAASGISYRYYAMGWYRQAPGKERELVAAITYRGGTTYYADSVKGRFKISRDKEKNTVYLQMNSLKPEDTAVYYCATDVNSYGYYYWGQGTQVTVSS,high polyreactivity
12,QVQLVESGGGLVEAGGSLRLSCAASASISGRYAMGSYRQAPGKERELVAAISWIGGSTYYADSVKGRFTISRDNAKNTVYLQMNSLKPEDTAVYYCNVTIDTRTHPLLVVFYGYDYWGQGTQVTVSS,low polyreactivity
13,QVQLVESGGGLVEAGGSLRLSCAASGGIFPVNAIGWYRQAPGKERELVATITYDGANTYYADSVKGRFTISRDNAKNTVYLQMNRLKPEDTAVYYCAKDRLSFYGYISYIGYGYDYWGQGTQVTVSS,low polyreactivity
14,QVQLVESGGGLVEAGGSLRLSCAASGRIFRKYTMGWYRQAPGKERELVAAISRNGGDTYYADSVKGRFTISRDNAKNTVYLLMNSLKPEDTAVYYCNARTPTDSTHFDYWGQGTQVSVSS,low polyreactivity
15,QVQLVESGGGLVEAGGSLRLSCAASGRIFWGNAMGWYRPAPGKERELVAAITRGGSTNYADSVKGRFTISRDNAKNTVYLQMKSLKPEDTAVYYCAARTRSRGNSWTYDYWGQGTQVTVSS,high polyreactivity
16,QVQLVESGGGLVEAGGSLRLSCAASGSIFDDYAMGWYRQAPGEERELVAAITWNGGSTYADSVKGRFTISRDNAKNTVYFQMNSLKPEDTAVYYSAADYFVYWYYGYGYWGQGTQVTVSS,low polyreactivity
17,QVQLVESGGGLVEAGGSLRLSCAASGSTFRYYAMGWYRQAPGKERELFAAITWSGGSTNYADSVKGRFTISRDNAKNTFYLQMNSLKPEDTAVYYCNARYLYRHSRYARYDSWGQGTQVTVSS,high polyreactivity
18,QVQLVESGGGLVEAGGSLRLSCAATGRTIRAYAMGWYRPEPGKERELVASISSGGSTKYADSVKGRFTISRDNAKNTVYLQMNSLKPEDTAVYFCAADRLLYGVDYWGQGTEVTVSS,low polyreactivity
19,QVQLVESGGGLVEAGGSLRLSCAAYGFIFSHNTMGCYRQAPGKERELVAGISWSGGNTYYSDSVKGRFTISRDNAKNTGYLQMNRLKPEDTAVYSFNVRFVTGYRYRYGDDYWGQGTQVTVSS,low polyreactivity
20,QVQLVESGGGLVEEGGSLRLSCAASGSIFYRNDMGWYRQAPGKERELVAAISWSGGRTYYADSVKGRFTISRDNAKNTVYLQMNSLKPEDTAVYYCAAFRHRQSSDNGYDYWGQGTQVTVSS,high polyreactivity

row,Sequence,polyreactivity (PSR sort gate)
1,QVQLVESGGGLVHAGCSLRLSCAAYGRNFYRYAMGWYRQAPGKERALVAAISGSVGSTYADTEKGRFTSSRDNAKNTVYLQMNSLKPEDTAVYYCARESYRRYGAYDYWGQGTQVTESS,low polyreactivity
2,QVQLVESGGGLVHAGGILRLSCAASGRTFRYYTMGWYRQEPGKERELVAAISSGGGNTYYADSVKGRFTISRDNAKNTVYLQMNSLKPEDTAVYYCAVPWYTRESGAYDYWGQGSQVTVSS,high polyreactivity
3,QVQLVESGGGLVHAGGRLRLSCAASGRTFGFYTMGWYRQPPGKERELVAGISRGGSTTYADSVKGRFTISRDNAKNTVYLQMNSLKPEDTAVYYCNADRSHYWLPYGVRFDYWGQGSQVTVSS,low polyreactivity
4,QVQLVESGGGLVHAGGRLRLSCAASGRTFGPYVMGWYRQSPGKERELVASISSADSTYYADSVKVRFTFSRDNAKNTFYLQMNSLKPEDTAVYYCAAEWYDYLYRMDYWGQGTQVTVSS,low polyreactivity
5,QVQLVESGGGLVHAGGRLRLSCAASGSTFSPYAMGWYRQPPGKERELVAAITRSGGRTYYADSVKGRFTISRDNAKNTVYLQMNSLKPEDTAVYYCAARNYKPYGYYRIYDSWGQGTQVTVSS,high polyreactivity
6,QVQLVESGGGLVHAGGSIRLSCAASGRIFDSNAMGRYRQAPGKEREVVAAITYSGGGTFYADSVKGRFTSSRDNAKNTVYLQMNCLKPEDTAVYYCNKLPHYFGPVYWFKGDDGYWGQGTQVTVTS,high polyreactivity
7,QVQLVESGGGLVHAGGSLLLSCDATGISLVRYSMGWYRQAPGKELELVAAISGSGGSTRYADSVKGRFTISRDNAKNTVYLQMNSMIPEDSAVYYCAARGAGPLDNHYSWGQGKQVTVSS,high polyreactivity
8,QVQLVESGGGLVHAGGSLRLSCAASAFIFLFYTMGSYRQAPGKERELVAAITSVGNTNYADSVKGRFSISRDNAKNTVFLQINSLKPEDTAVYYCAADTTDPGGAYQLMDYWGQGTQVTLSS,low polyreactivity
9,QVQLVESGGGLVHAGGSLRLSCAASGFIFDTYLMGRYRQAPGTERELVAAISRTGGRTYYADSVKGRFTISRDNAKYTVYLQMNSLNPEDTAVYYCNRAPHIAPEDYDYWGQGTQVTVSS,high polyreactivity
10,QVQLVESGGGLVHAGGSLRLSCAASGFTFAQNAMGWYRQATGKEREWVAAITRSGARTYYADSVKGRFTISRDNAKNTVYLLMNSLKPEDTPVYYCNRDASRKYGYWGQGTQVTVSS,high polyreactivity
11,QVQLVESGGGLVHAGGSLRLSCAASGFTFGNAMGWYRQAPGKERELVAAITVNGGTTNYADSVKGRFTISRDNAKNTVYLQMNSLKPEDTAVYSCNVDTSYGPAGDYWGQGTQVTVSS,low polyreactivity
12,QVQLVESGGGLVHAGGSLRLSCAASGFTFGTYAMGWYRQAPGKEMELVSAISWKGGSTFYADSVKGRFTISRDNAKNTVYLQMNSLKPEDTAVYYCSKLLRRGGHRVFTYDYWGQGTQVTVSS,high polyreactivity
13,QVQLVESGGGLVHAGGSLRLSCAASGFTFPGYAMGWYRQAPGKERELVAAISRGGAGTYYADSVKGRFTISRDNAKNTVYLQMHSLKPEDTAFYDCAAATDNPSLFQDMYYWGQGTQLTVSS,high polyreactivity
14,QVQLVESGGGLVHAGGSLRLSCAASGFTIERYAMGWYRQAAGKERELVAVISTSGGSTYYADSVNWRYTITRDNAKNSVYLQMNSLKPEDTAVYYCAKDGSSRGDYHFGWGYYYWGQGTQVTVSS,low polyreactivity
15,QVQLVESGGGLVHAGGSLRLSCAASGGIFGYYTMGWYRQAPGKERELVAAITWRGSTYYADSVKGRFTISRDNAKNTVYLQMNSLKPEDTAVYYCAARYYSPYGYWGQGTQVTVSS,high polyreactivity
16,QVQLVESGGGLVHAGGSLRLSCAASGGNFGKYAMGGYRQAPGKERELVAAITWNGGRTYYADSVKGRFTLSRDNAKNTVYLQMNSLKPEDSAVNYCNARNSHRYVYWGQGTQVTVSS,high polyreactivity
17,QVQLVESGGGLVHAGGSLRLSCAASGITFVRYMGWYRQAPGKERELVAAISASGGSTYYADSVKGRFTISRDNAKNTVYLQLNCLKPEDTAVYYCRFLRVGSLTMDYWGQGSQVTVSS,high polyreactivity
18,QVQLVESGGGLVHAGGSLRLSCAASGITFYEYTMGWYRQAPGKERELVADIDFSGDSTYYSDSVKGRFTISRDYAKNTVYLQMNSLKPEDTAVYYCAVEIIYWWYIYEYWGQGSQVTVSS,high polyreactivity
19,QVQLVESGGGLVHAGGSLRLSCAASGLTFYYYDMGWYRQAPGKERELVAAITRRGGSTYYADSVKGRFTISRDNAKNTVYLQMNSLKPEDTAVYYCNALSRTVSHEADDYWGQGTHVTVSS,high polyreactivity
20,QVQLVESGGGLVHAGGSLRLSCAASGNTYLYYGLGWYRQAPVKEREMVAAITQSGGTTYYADSVKGRFTISRDNAKNTVYLQMNSLTPEDTAVYYCAATRYYYYWYVYDDRGDYWGQGTQVTVSS,low polyreactivity
